Data reported in US6544767B1, “Cathespin O2 protease” (Axys Pharmaceuticals, Inc., priority 1994, dated 2003).
Like-named read-outs stand apart in the source and are kept apart here.

T1: recombinant human cathepsin O2 (Homo sapiens, UniProt P43235)
T1 construct: the mature protein spans from position 115 to 329 (215 amino acids); made in house; host or cells: Sf9 insect cells (baculovirus, pVL1392)
T1 sequence (P43235 115-329): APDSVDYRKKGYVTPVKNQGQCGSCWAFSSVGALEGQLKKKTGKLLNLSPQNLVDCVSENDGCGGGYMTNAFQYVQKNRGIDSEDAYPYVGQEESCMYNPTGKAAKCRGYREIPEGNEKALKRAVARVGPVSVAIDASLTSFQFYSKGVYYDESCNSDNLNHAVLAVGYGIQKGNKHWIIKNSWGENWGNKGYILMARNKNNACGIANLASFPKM


Tests used:
[1] = target: T1, recombinant human cathepsin O2; assay: Inhibitor profile, fluorimetric enzyme assay with Z-FR-MCA; format: biochemical
Method: Human cathepsin O2 was assayed with a fluorogenic substrate Z-FR-MCA (MCA, methyl coumarylamide) in 100 mM sodium acetate buffer, containing 2.5 mM dithioerythreitol and 2.5 mM EDTA. Initial rates of hydrolysis of the MCA-substrate are monitored in 1-cm cuvettes at 25° C. at an excitation wavelength at 380 nm and an emission wavelength at 450 nm. The concentration of Z-FR-MCA is 5 μM under standard conditions.
The inhibition of cathepsin O2 was assayed at a constant substrate (5 μM Z-FR-MCA) and enzyme concentration (1 nM) in the presence of different inhibitor concentrations in the substrate assay buffer. Cathepsin O2 was preincubated with the inhibitors for 10 min and the reaction was started with substrate. The residual activity was monitored and percent inhibition was calculated from the uninhibited rate.
The efficacy of protease class specific inhibitors to inhibit cathepsin O2 was determined by adding the inhibitor to the purified enzyme in a fluorimetric enzyme assay (described above).

pH stability at 37° C. = format: physicochemical
Method: The residual activity was measured in time intervals using the above described fluorimetric substrate assay. The pH stability of cathepsins O2, S and L was studied at three different pH values. Recombinant human cathepsins O2, S and L were incubated at 37° C. in 100 mM sodium acetate buffer, pH 5.5, in 100 mM potassium phosphate buffer, pH 6.5 and in 100 mM Tris/HCl, pH 7.5 containing 5 mM dithiothreitol and 2.5 mM EDTA. Incubating for 0.5, 1, 2 and 4 hours, the activity remaining was determined using 5 μM Z-FR-MCA for cathepsin O2 (100 mM potassium phosphate buffer, pH 6.5) and cathepsin L (100 mM sodium acetate buffer, pH 5.5) and 5 μM Z-VVR-MCA for cathepsin S (100 mM potassium phosphate buffer, pH 6.5).

[2] = system: denatured soluble calf skin collagen; assay: Gelatinase activity, SDS-PAGE; format: biochemical
Method: (§1) FIGS. 9A and 9B depict SDS PAGE of type I collagen (soluble calf skin collagen) after digestion with recombinant human cathepsin O2 and L and bovine trypsin. FIG. 9A: Collagenase activity: Digestion of soluble calf skin collagen at 28° C. and at pH 4.0, 5.0, 5.5, 6.0, 6.5, 7.0 by human cathepsins O2, S and L (each 50 nM) for 12 hours. The reaction was stopped by addition of 10 μM E-64. Untreated soluble collagen was used as standard (S). FIG. 9B: Gelatinase activity: Digestion of denatured soluble calf skin collagen (10 min heated at 70° C.) at 28° C. and at pH 4.0, 5.0, 5.5, 6.0, 6.5, 7.0 by human cathepsin O2 (0.1 nM), cathepsin L (0.2 nM) and human cathepsin S (1 nM). Molecular mass standards are indicated in the left lane.
(§2) Soluble calf skin Type I collagen was diluted to 0.4 mg/ml into 100 mM-sodium acetate buffer, pH 4.5, 5.0, 5.5, in 100 mM-potassium phosphate buffer, pH 6.0, 6.5 and 100 mM-Tris/HCl, pH 7.0 containing 2 mM-dithiotreitol/2 mM-EDTA. Human cathepsins O2, S and L and bovine trypsin (Sigma) were incubated at concentrations of 100 nM enzyme concentration for 10 hours at 28° C. To measure the gelatinase activity of cathepsins O2 and S, Type I collagen was heated for 10 min at 70° C. prior to incubation with the proteases. In the presence of 1 nM proteases the reaction mix was incubated for 30 min at 28° C. The samples were subjected to SDS polyacrylamide electrophoresis using 4-20% Tris-glycine gels (Novex, San Diego, Calif.).

pH activity profile = format: biochemical; conditions: for pH optimum: calculated from (pK1 + pK2)/2
Method: Initial rates of substrate hydrolysis were monitored as described above. The pH activity profile of human cathepsin O2 was obtained at 1 μM substrate (Z-FR-MCA) concentration ([S]<<Km where the initial rate vo is directly proportional to the kcat/Km value). The following buffers were used for the pH activity profile: 100 mM sodium citrate (pH 2.8-5.6) and 100 mM sodium phosphate (pH 5.8-8.0). All buffers contained 1 mM EDTA and 0.4 M NaCl to minimize the variation in ionic strength. A three protonation model (Khouri et al., Biochem. 30:8929-8936 (1991)) was used for least square regression analysis of the pH activity data. The data were fitted to the following equation.
(kcat/Km)obs=(kcat/Km)/([H^+]/K1+1+K2/[H^+])

[3] = system: Soluble calf skin Type I collagen; assay: Collagenase activity, SDS-PAGE; format: biochemical
Method: as §1, §2

[^3H] elastin = Elastin degradation assay; format: biochemical
Method: Elastin (2 mg) was incubated in I ml buffer containing 2.5 mM dithiothreitol, 2.5 mM EDTA and 0.05% Triton X-100 for the cathepsin O2, S and L assays. Aliquots were withdrawn after 10, 20, 30, 50, 90, 120 and 180 min, centrifuged for 1 min at 14,000×g and counted in a 24-well plate containing scintillation fluid with Liquid Scintillation counter (1450 Microbeta Plus, Wallac/Pharmacia). Concentrations of human cathepsins O2, S and L and bovine elastase in the elastin degradation assay were 65 nM, 28 nM, 80 nM and 80 nM, respectively. To determine the pH effect on protease activity the digests were carried out at pH 4.5 and 5.5 (100 mM sodium acetate, 2.5 mM each dithiothreitol and EDTA, 0.05% Triton X-100), and at pH 7.0 (100 mM Tris/HCl, 2.5 mM each of dithiothreitol and EDTA, 0.05% Triton X-100). Pancreatic bovine elastase (Boehringer, Mannheim, Ind.) was assayed under the same conditions except that neither dithiothreitol nor EDTA was added to the incubation mixture.

[4] = from literature; cited from earlier work

Row | Molecule | Residual activity (%) (pH stability at 37° C.; pH 5.5, 37° C., 0.5 hr) | Residual activity (%) (pH stability at 37° C.; pH 5.5, 37° C., 1 hr) | Residual activity (%) (pH stability at 37° C.; pH 5.5, 37° C., 2 hr) | Residual activity (%) (pH stability at 37° C.; pH 5.5, 37° C., 4 hr) | Residual activity (%) (pH stability at 37° C.; pH 6.5, 37° C., 0.5 hr) | Residual activity (%) (pH stability at 37° C.; pH 6.5, 37° C., 2 hr) | Residual activity (%) (pH stability at 37° C.; pH 6.5, 37° C., 4 hr) | Residual activity (%) (pH stability at 37° C.; pH 7.5, 37° C., 0.5 hr) | Residual activity (%) (pH stability at 37° C.; pH 7.5, 37° C., 1 hr) | Residual activity (%) (pH stability at 37° C.; pH 7.5, 37° C., 2 hr) | Residual activity (%) (pH stability at 37° C.; pH 7.5, 37° C., 4 hr) | gelatinase activity [2] | pH optimum (pH activity profile) | elastinolytic activity ([^3H] elastin; pH 4.5) | elastinolytic activity ([^3H] elastin; pH 5.5) | elastinolytic activity ([^3H] elastin; pH 7.0) | collagenolytic activity [3] | pK1 of pH activity profile [4] | pK2 of pH activity profile [4] | width of the pH profile [4] | also measured
1 | chicken cystatin: cysteine protease inhibitor (protein) SEDRSRLLGAPVPVDENDEGLQRALQFAMAEYNRASNDKYSSRVVRVISAKRQLVSGIKYILQVEIGRTTCPKSSGDLQSCEFHDEPEMAKYTTCTFVVYSIPWLNQIKLLESKCQ | – | – | – | – | – | – | – | – | – | – | – | – | – | – | – | – | – | – | – | – | % inhibition ([1]; [inhibitor] 0.1 μM): 100%; inhibition of enzyme activity ([1]; concentrations above 0.1 μM): completely inhibit
2 | cathepsin O2: recombinant human cysteine protease of the papain family, mature enzyme expressed in Sf9 cells (protein) APDSVDYRKKGYVTPVKNQGQCGSCWAFSSVGALEGQLKKKTGKLLNLSPQNLVDCVSENDGCGGGYMTNAFQYVQKNRGIDSEDAYPYVGQEESCMYNPTGKAAKCRGYREIPEGNEKALKRAVARVGPVSVAIDASLTSFQFYSKGVYYDESCNSDNLNHAVLAVGYGIQKGNKHWIIKNSWGENWGNKGYILMARNKNNACGIANLASFPKM | 91% | 88% | 70% | 52% | 85% | 22% | 15% | 11% | 0% | 0% | 0% | powerful gelatinase activity | 6.1 | 245 mg/min/μmol enzyme | 286 mg/min/μmol enzyme | 170 mg/min/μmol enzyme | – | – | – | – | time to total degradation of denatured collagen ([2]; 0.1 nM enzyme, pH range of 5.0 to 7.0): ≤ 30 min; pK1′ of pH activity profile (pH activity profile): 3.43 ± 0.05; width of the pH profile (pH activity profile): 4.15; pK1 of pH activity profile (pH activity profile; listed as Human cathepsin O2): 4.0; pK2 of pH activity profile (pH activity profile; listed as Human cathepsin O2): 8.13; pK1 of pH activity profile (pH activity profile; listed as human cathepsin O2): 4.00 ± 0.02; pK2 of pH activity profile (pH activity profile; listed as human cathepsin O2): 8.13 ± 0.01; degradation of Type I collagen ([3]; between pH 5.0 and 6.0 at 28° C.): extensively degraded; degradation of Type I collagen ([3]; pH 4.5 and pH 7.0, 28° C.): much less pronounced; pH of maximal elastinolytic activity ([^3H] elastin): 5.5; elastinolytic activity relative to pancreatic elastase ([^3H] elastin; neutral pH): 2.4 times; elastinolytic activity relative to cathepsin L ([^3H] elastin; pH 5.5): ~9 times
3 | trypsin: bovine trypsin (Sigma) (protein, UniProt P00760 24-246, looked up) Serine protease 1: IVGGYTCGANTVPYQVSLNSGYHFCGGSLINSQWVVSAAHCYKSGIQVRLGEDNINVVEGNEQFISASKSIVHPSYNSNTLNNDIMLIKLKSAASLNSRVASISLPTSCASAGTQCLISGWGNTKSSGTSYPDVLKCLKAPILSDSSCKSAYPGQITSNMFCAGYLEGGKDSCQGDSGGPVVCSGKLQGIVSWGSGCAQKNKPGVYTKVCNYVSWIKQTIASN | – | – | – | – | – | – | – | – | – | – | – | – | – | – | – | – | No degradation | – | – | – | –
4 | cathepsin S: recombinant human cathepsin S expressed using the baculovirus expression system (protein) LPDSVDWREKGCVTEVKYQGSCGACWAFSAVGALEAQLKLKTGKLVSLSAQNLVDCSTEKYGNKGCNGGFMTTAFQYIIDNKGIDSDASYPYKAMDQKCQYDSKYRAATCSKYTELPYGREVDLKEAVANKGPVSVGVDARHPSFFLYRSGVYYEPSCTQNVNHGVLVVGYGDLNGKEYWLVKNSWGHNFGEEGYIRMARNKGNHCGIASFPSYPEI | 100% | 95% | 92% | 83% | 100% | 94% | 71% | 91% | 72% | 61% | 60% | significant weaker activity than the cathepsins O2 and L | 6.1 | 146 mg/min/μmol enzyme | 102 mg/min/μmol enzyme | 55 mg/min/μmol enzyme | very weak collagenolytic activity | 4.49 ± 0.03 | 7.82 ± 0.03 | 3.35 | Residual activity (%) (pH stability at 37° C.; pH 6.5, 37° C., 1 hr): 100%
5 | papain: cysteine protease, literature comparison (protein, UniProt P00784 134-345, looked up) Papain: IPEYVDWRQKGAVTPVKNQGSCGSCWAFSAVVTIEGIIKIRTGNLNEYSEQELLDCDRRSYGCNGGYPWSALQLVAQYGIHYRNTYPYEGVQRYCRSREKGPYAAKTDGVRQVQPYNEGALLYSIANQPVSVVLEAAGKDFQLYRGGIFVGPCGNKVDHAVAAVGYGPNYILIKNSWGTGWGENGYIRIKRGTGNSYGVCGLYTSSFYPVKN | – | – | – | – | – | – | – | – | – | – | – | – | 6.5 | – | – | – | – | 4.54 ± 0.29 | 8.45 ± 0.02 | 3.91 | pK1′ of pH activity profile [4]: 3.58 ± 0.29
